Source: patent US20070027089A1 (POSCO, published 2007)
Where no end group is shown, it is not given here. The star is where a group is joined. Biotin = O=C1N[C@H]2[C@H](CS[C@H]2CCCCC(=O)*)N1; Dnp = O=[N+]([O-])c1ccc(*)c([N+](=O)[O-])c1; Mca = COc1ccc2c(CC(=O)*)cc(=O)oc2c1

What was measured:
[1] = molecular target: T1, f-Sub M (7-methoxycoumarin-4-acetyl-SEVNLDAEFRK(Dnp)-RR-NH2); assay: cell-based or functional assay
T1 peptide: Mca-SEVNLDAEFRK(Dnp)RR-NH2

[2] = molecular target: T2, biotin-labeled Substrate W; assay: plate assay: HC peptide chemically coupled to plate, bio-Sub W, Str-HRP (FIG. 27)
T2 construct: also called bio-Sub W; N-terminally biotinylated Substrate W
T2 peptide: Biotin-SEVKMDAEFR
Experimental: (§1) Reacti-BindTM maleic anhydride-activated polystyrene plate (Pierce, Ill., USA) was coated with 50 μl of HC peptide (200 μM in distilled water) by chemical coupling for 3 h at room temperature (RT) and washed three times with phosphate buffered saline (PBS) containing 0.05% tween 20 (PBST). The plate was blocked with blocking buffer (0.5% gelatin in PBS) for 1 h at RT. After discarding blocking buffer, biotinylated BACE1 substrates (200 μM) in blocking buffer was applied on the plate and incubated for 2.5 h at RT. Each well was washed three times with PBST. The bound biotinylated BACE1 substrates were detected by incubation with streptavidin-horseradish peroxidase (Str-HRP, 125 mU/ml in blocking buffer) for 2 h at RT. Color reaction was carried out with 50 μl of 3,3′,5,5′-Tetramethylbenzidine Liquid Substrate (Sigma-Aldrich, Mo., USA). After stopping the reaction by addition of an equal volume of 1 N HCl, absorbance at 450 nm was read in an automated ELISA reader (EL 312e, Bio-Tek Instruments, VT, USA). All assays were carried out in duplicate.

[3] = molecular target: T3, Sub-ST6Gal1 (non-labelled); assay: cell-based or functional assay
T3 peptide: DYEALTLQAKEFQMPKSQE

[4] = molecular target: T4, Substrate M (decamer containing the β-secretase cleavage site of Swedish mutant APP), non-labelled; assay: cell-based or functional assay
T4 peptide: SEVNLDAEFR

[5] = molecular target: T5, biotin-labeled Substrate M; assay: plate assay: HC peptide chemically coupled to plate, bio-Sub M, Str-HRP, A450 (Table 2)
T5 construct: also called bio-Sub M; N-terminally biotinylated Substrate M
T5 peptide: Biotin-SEVNLDAEFR
Experimental: as §1

[6] = molecular target: T2, biotin-labeled Substrate W; assay: plate assay: complementary peptide immobilised, biotinylated substrate, streptavidin-HRP
[7] = molecular target: T5, biotin-labeled Substrate M; assay: plate assay: HC peptide chemically coupled to plate, bio-Sub M, Str-HRP, A450 (Table 1)
Experimental: as §1

[8] = molecular target: T5, biotin-labeled Substrate M; assay: plate assay: complementary peptide immobilised, biotinylated substrate, streptavidin-HRP
[9] = molecular target: T6, recombinant human β-secretase (rhBACE1) (human, UniProt P56817 22-457, limits assumed); assay: ELISA, c-Sub M immobilised
T6 construct: Bought
T6 sequence (P56817 22-457 limits assumed): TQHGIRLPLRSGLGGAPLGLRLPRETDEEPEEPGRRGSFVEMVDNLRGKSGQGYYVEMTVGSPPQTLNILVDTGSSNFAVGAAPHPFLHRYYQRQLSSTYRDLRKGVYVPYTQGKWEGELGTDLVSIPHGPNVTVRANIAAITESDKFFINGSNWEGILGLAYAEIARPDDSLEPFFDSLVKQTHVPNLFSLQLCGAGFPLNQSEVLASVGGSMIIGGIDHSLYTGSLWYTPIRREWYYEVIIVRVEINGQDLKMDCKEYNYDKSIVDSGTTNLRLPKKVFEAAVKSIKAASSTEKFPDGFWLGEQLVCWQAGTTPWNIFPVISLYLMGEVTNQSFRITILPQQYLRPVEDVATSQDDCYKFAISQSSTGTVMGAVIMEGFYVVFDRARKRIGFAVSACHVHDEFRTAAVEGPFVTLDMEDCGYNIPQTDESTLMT

## CIQIHF-NH2 (also called c-Sub MΔC1N3; c-Sub ΔN3C1) [c-Sub M ΔN3C1 (CIQIHF)]
[1]
  inhibitory activity relative to c-Sub M ΔN1C1 (FRET, f-Sub M 10 µM): ~0.1 fold
[2]
  binding result: binds

## SEFCIQIH-NH2 [c-Sub M ΔC2 (SEFCIQIH)]
[1]
  percent inhibition of f-Sub M cleavage by rhBACE1 (peptide 1 mM, f-Sub M 10 µM): 44%

B1: c-Sub M ΔN1C1 (EFCIQIHF) (peptide)
peptide: EFCIQIHF-NH2
notes: also called one amino acid deletion from N-terminal of c-Sub M ΔC1
[3]
  percent inhibition of substrate cleavage by rhBACE1 (HPLC), inhibitor/substrate ratio 20: 40%
  percent inhibition of substrate cleavage by rhBACE1 (HPLC), inhibitor/substrate ratio up to 10: ~10%
[1]
  IC50 of inhibition of f-Sub M (10 µM) cleavage by rhBACE1 (FRET): 15 µM
[4]
  percent inhibition of substrate cleavage by rhBACE1 (HPLC), inhibitor/substrate ratio 20: 100%
  percent inhibition of substrate cleavage by rhBACE1 (HPLC), inhibitor/substrate ratio up to 10: 60%
[2]
  fold binding to Sub W relative to c-Sub W: 2.5 fold

## SEFCIQIHF-NH2 (also called c-SubM CΔ1) [c-Sub M ΔC1 (SEFCIQIHF)]
[1]
  percent inhibition of f-Sub M cleavage by rhBACE1 (peptide 1 mM, f-Sub M 10 µM): 90%
[5]
  binding result: binds

B2: c-Sub W (SEFCIHLHFR) (peptide)
peptide: SEFCIHLHFR-NH2
notes: Hydropathic complementary peptide designed from the antisense strand of Sub W, read 5'->3'
[6]
  binding result: binds
[7]
  binding result: binds

B3: c-Sub M (SEFCIQIHFR) (peptide)
peptide: SEFCIQIHFR-NH2
notes: Hydropathic complementary peptide designed from the antisense strand of Sub M, read 5'->3'; also called HC peptide c-Sub M
[1]
  percent inhibition of f-Sub M cleavage by rhBACE1 (FRET), peptide 100 fold over substrate: ~50%
  percent inhibition of f-Sub M cleavage by rhBACE1 (peptide 1 mM, f-Sub M 10 µM): 45%
[8]
  binding result: binds
[2]
  fold binding to Sub W relative to c-Sub W: 4 fold
[9]
  binding result: no binding

## SEFCI-NH2 [c-Sub M ΔC5 (SEFCI)]
[1]
  percent inhibition of f-Sub M cleavage by rhBACE1 (peptide 1 mM, f-Sub M 10 µM): > 90%

## SEFCIQ-NH2 [c-Sub M ΔC4 (SEFCIQ)]
[1]
  percent inhibition of f-Sub M cleavage by rhBACE1 (peptide 1 mM, f-Sub M 10 µM): > 90%

## SEFCIQI-NH2 [c-Sub M ΔC3 (SEFCIQI)]
[1]
  percent inhibition of f-Sub M cleavage by rhBACE1 (peptide 1 mM, f-Sub M 10 µM): > 90%

## FCIQIHF-NH2 [c-Sub M ΔN2C1 (FCIQIHF)]
[3]
  percent of substrate cleavage by β-secretase blocked (HPLC), 25-fold inhibitor: 25%
[4]
  percent of substrate cleavage by β-secretase blocked (HPLC), 25-fold inhibitor: ~60%
[2]
  binding result: binds

B4: Sub W-c (RLHFYLRLKA) (peptide)
peptide: RLHFYLRLKA-NH2
notes: Complementary peptide of Sub W read 3'->5'
[7]
  binding result: binds
